Patent US20020111306A1
Several values for one entry are separate records, joined by “and”; a condition that tells them apart may be missing. Identical values can stand only once. Blank lines part the entries; values can stand above or below the molecule they belong to.

What was measured:
[1] = molecular target: human MCH1 receptor (MCH1) encoded by plasmid TL231 (pEXJ.HR-TL231) (human); experiment: cell-based or functional assay
[2] = molecular target: human MCH1 receptor (MCH1) encoded by plasmid TL231 (pEXJ.HR-TL231) (human); experiment: radioligand binding, membranes of Cos-7 cells transfected with MCH1, 0.1 nM radioligand, filtration
[3] = molecular target: human MCH1 receptor (MCH1) encoded by plasmid TL231 (pEXJ.HR-TL231) (human); experiment: radioligand binding, membranes of Cos-7 cells transfected with MCH1, 0.1 nM radioligand, filtration; nonspecific binding defined with 10 µM unlabeled MCH
[4] = molecular target: mutant human MCH1 receptor encoded by plasmid R114 (M6A, M70A) (human) (UniProt Q99705); experiment: cell-based or functional assay
[5] = molecular target: human MCH1 receptor (MCH1) encoded by plasmid TL231 (pEXJ.HR-TL231) (human); experiment: cell-based or functional assay; remark: listed apart in the source
[6] = molecular target: mutant (short form) human MCH1 receptor encoded by plasmid BO120 (human); experiment: cell-based or functional assay

human MCH1 receptor (MCH1) encoded by plasmid TL231 (pEXJ.HR-TL231) (human), sequence (chain, as listed by the source limits assumed): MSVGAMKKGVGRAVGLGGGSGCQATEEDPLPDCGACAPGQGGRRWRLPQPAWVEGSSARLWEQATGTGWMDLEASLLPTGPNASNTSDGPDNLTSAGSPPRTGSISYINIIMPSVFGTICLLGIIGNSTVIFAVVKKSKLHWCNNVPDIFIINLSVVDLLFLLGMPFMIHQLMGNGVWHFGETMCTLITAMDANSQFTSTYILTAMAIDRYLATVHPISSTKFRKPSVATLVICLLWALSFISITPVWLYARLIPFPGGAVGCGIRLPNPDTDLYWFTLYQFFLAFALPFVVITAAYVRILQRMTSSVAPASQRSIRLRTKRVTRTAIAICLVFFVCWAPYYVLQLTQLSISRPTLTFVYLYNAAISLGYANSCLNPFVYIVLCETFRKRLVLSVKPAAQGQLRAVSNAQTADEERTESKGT
UniProt Q99705, sequence (Q99705 whole entry, stated change not applied): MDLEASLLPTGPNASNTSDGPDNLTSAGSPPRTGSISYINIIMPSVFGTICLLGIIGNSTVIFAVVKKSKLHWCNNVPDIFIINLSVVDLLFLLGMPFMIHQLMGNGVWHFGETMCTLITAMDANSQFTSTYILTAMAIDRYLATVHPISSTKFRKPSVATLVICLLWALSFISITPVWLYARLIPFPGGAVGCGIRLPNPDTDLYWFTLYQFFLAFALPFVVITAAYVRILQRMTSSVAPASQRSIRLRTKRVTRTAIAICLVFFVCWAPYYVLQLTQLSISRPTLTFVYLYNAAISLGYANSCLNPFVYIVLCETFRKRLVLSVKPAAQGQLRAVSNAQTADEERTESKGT

EC50 of extracellular acidification rate (microphysiometer), CHO cells transiently transfected with MCH1 [1]: 51.8 nM
Molecule: Phe^13,Tyr^19-MCH (from UniProt P20382 147-165) (peptide)

specific binding as percent of total binding (% of total binding) [2]: 70
specific binding (fmol/mg membrane protein) [3]: 80
Molecule: [^125I]Phe^13,Tyr^19-MCH (from UniProt P20382 147-165) (peptide)

Max. Response (RFU), mobilization of intracellular calcium (FLIPR, fluo-3), COS-7 cells [4]: 2270 RFU and 1550 RFU
EC50 (nM), mobilization of intracellular calcium (FLIPR, fluo-3), COS-7 cells [5]: 60 nM
inositol phosphate (IP) production, Cos-7 cells co-transfected with MCH1 and a G alpha subunit, 10 µM MCH [5]: 1.4 fold
EC50 (nM), mobilization of intracellular calcium (FLIPR, fluo-3), COS-7 cells [6]: 3.5 nM
Max. Response (RFU), mobilization of intracellular calcium (FLIPR, fluo-3), COS-7 cells [6]: 30000 RFU and 25000 RFU
Molecule: DFDMLRCMLGRVYRPCWQV (peptide, UniProt P20382 147-165, looked up) [melanin concentrating hormone (MCH)]
